Experimental data taken from patent US20260125457A1 (Janssen / Centocor, published 2026).

How the values were obtained:
[1] = biological target: CALRmut on CD34+ cells isolated from CALRmut MPN patients; assay: cell-based or functional assay
[2] = biological target: T1, wild-type CALR (CALRW14.001) (UniProt P27797 18-417, limits assumed); assay: SPR
T1 sequence (looked up): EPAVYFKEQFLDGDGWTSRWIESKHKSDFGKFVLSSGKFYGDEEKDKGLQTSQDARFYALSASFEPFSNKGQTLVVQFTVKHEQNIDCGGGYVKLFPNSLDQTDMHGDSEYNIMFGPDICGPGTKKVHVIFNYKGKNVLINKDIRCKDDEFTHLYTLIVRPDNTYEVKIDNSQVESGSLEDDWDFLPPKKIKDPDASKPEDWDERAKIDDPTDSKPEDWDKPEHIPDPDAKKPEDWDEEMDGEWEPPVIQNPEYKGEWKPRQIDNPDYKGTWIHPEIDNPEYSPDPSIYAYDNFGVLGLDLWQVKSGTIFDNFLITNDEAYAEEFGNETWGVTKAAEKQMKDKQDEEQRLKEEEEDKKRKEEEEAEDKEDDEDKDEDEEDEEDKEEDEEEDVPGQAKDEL

[3] = biological target: T2, CD3EG-HSA-6xHis (CD3W220.002) (human, UniProt P07766 22-118; P09693 23-103); assay: SPR
T2 construct: also called human CD3; not shown: human serum albumin (HSA); 6xHis tag
T2 sequence (P07766 other isoform, or with tags, fused parts or gaps): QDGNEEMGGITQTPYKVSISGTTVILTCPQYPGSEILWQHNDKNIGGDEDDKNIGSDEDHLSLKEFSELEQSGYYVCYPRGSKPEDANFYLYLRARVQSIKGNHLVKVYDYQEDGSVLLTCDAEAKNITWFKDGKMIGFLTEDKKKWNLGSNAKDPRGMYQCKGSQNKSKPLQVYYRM

[4] = biological target: T3, Flag/6xhis-CALRdel52 (CALRW12.007) (human, UniProt P27797 18-417); assay: SPR
T3 construct: also called human CALRdel52
T3 sequence (looked up): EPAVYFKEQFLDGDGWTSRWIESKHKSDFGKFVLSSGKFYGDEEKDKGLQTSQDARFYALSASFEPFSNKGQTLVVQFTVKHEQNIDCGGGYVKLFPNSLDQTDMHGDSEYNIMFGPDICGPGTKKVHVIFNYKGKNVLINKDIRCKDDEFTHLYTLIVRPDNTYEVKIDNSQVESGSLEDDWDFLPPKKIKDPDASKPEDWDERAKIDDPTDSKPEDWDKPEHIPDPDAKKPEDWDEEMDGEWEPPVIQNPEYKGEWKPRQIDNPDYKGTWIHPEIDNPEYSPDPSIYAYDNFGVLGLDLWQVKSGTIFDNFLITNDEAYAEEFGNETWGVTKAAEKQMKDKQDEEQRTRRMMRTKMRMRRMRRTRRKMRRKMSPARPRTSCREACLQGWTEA

[5] = biological target: T4, Avi/his-CalR-Ins5 (CALRW28.004) (human, UniProt P27797 18-417, limits assumed); assay: SPR
T4 construct: also called human CALRins5
T4 sequence (looked up): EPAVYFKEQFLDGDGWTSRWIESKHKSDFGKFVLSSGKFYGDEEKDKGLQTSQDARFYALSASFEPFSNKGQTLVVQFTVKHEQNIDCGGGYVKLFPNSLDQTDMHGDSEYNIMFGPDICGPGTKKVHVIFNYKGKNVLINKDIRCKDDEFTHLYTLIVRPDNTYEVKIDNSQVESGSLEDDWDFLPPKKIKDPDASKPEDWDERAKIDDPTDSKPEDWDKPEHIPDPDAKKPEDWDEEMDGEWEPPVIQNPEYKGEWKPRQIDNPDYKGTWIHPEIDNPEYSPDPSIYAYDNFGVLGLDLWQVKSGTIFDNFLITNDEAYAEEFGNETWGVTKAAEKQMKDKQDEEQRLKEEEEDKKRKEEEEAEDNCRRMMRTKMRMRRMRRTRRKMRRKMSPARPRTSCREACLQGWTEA

[6] = biological target: T5, CD3 on primary human pan T cells (human, UniProt P07766 23-207); assay: flow cytometry on pan CD3 T cells, 1 h at 37 C, AF647 secondary antibody, Geometric Mean
T5 construct: whole, on cells; also called CD3e; CD3ε
T5 sequence (P07766 23-207): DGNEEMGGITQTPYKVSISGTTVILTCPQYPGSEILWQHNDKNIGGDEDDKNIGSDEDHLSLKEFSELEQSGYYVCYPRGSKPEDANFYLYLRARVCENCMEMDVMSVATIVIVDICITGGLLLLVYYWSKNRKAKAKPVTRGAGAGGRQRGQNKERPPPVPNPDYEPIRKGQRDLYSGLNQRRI

B1: C3CRB73 CALRmut x CD3 bispecific antibody (bispecific antibody, human IgG1, kappa, L234A L235A)
heavy: EVQLLESGGGLVQPGGSLRLSCAVSGIDLSNNAISWVRQAPGKGLEYVGVIGNTGDTYYADSAKGRFTISRDSSKTTLYLQMNSLRAEDTAVYFCVRGPPSYSSSVKNIWGQGTLVTVSSASTKGPSVFPLAPSSKSTSGGTAALGCLVKDYFPEPVTVSWNSGALTSGVHTFPAVLQSSGLYSLSSVVTVPSSSLGTQTYICNVNHKPSNTKVDKKVEPKSCDKTHTCPPCPAPEAAGGPSVFLFPPKPKDTLMISRTPEVTCVVVSVSHEDPEVKFNWYVDGVEVHNAKTKPREEQYNSTYRVVSVLTVLHQDWLNGKEYKCKVSNKALPAPIEKTISKAKGQPREPQVYTLPPSREEMTKNQVSLSCAVKGFYPSDIAVEWESNGQPENNYKTTPPVLDSDGSFFLVSKLTVDKSRWQQGNVFSCSVMHEALHNRFTQKSLSLSPGK
light: DIQMTQSPSSVSASVGDRVTITCQSSQSVYNNNWLSWLQQKPGKAPKRLIYDASKLESGVPSRFSGSGSGTDFTLTISSVQPEDAATYYCAGGFTGNVYTFGGGTKVEIKRTVAAPSVFIFPPSDEQLKSGTASVVCLLNNFYPREAKVQWKVDNALQSGNSQESVTEQDSKDSTYSLSSTLTLSKADYEKHKVYACEVTHQGLSSPVTKSFNRGEC
scFv: DIQMTQSPSSLSASVGDRVTITCRARQSIGTAIHWYQQKPGCAPKLLIKYASESISGVPSRFSGSGSGTDFTLTISSLQPEDFATYYCQQSGSWPYTFGQGTKLEIKGGGSGGSGGCPPCGGSGGEVQLVESGGGLVKPGGSLRLSCAASGFTFSRYNMNWVRQAPGKGLEWVSSISTSSNYIYYADSVKGRFTFSRDNAKNSLDLQMSGLRAEDTAIYYCTRGWGPFDYWGCGTLVTVSSEPKSSDKTHTCPPCPAPEAAGGPSVFLFPPKPKDTLMISRTPEVTCVVVSVSHEDPEVKFNWYVDGVEVHNAKTKPREEQYNSTYRVVSVLTVLHQDWLNGKEYKCKVSNKALPAPIEKTISKAKGQPREPQVYTLPPSREEMTKNQVSLWCLVKGFYPSDIAVEWESNGQPENNYKTTPPVLDSDGSFFLYSKLTVDKSRWQQGNVFSCSVMHEALHNHYTQKSLSLSPGK
notes: IgG1-AAS; also called JNJ-88549968; CALRB421 Fab x CD3 spFv
- cytotoxicity EC50, autologous assay, patient CALRmut CD34+ cells [1]: 0.94 nM
- cytotoxicity EC90, autologous assay, patient CALRmut CD34+ cells [1]: 7.58 nM
- maximal cytotoxicity, autologous assay, CD34+ cells of one donor without detected binding [1]: 68%
- maximum cytotoxicity, autologous assay, patient CALRmut CD34+ cells [1]: 69%
- binding result [2]: no binding (tested: 300 nM)
- Kd [3]: 0.214 nM
- Kd [4]: 0.0602 nM
- Kd [5]: 0.0331 nM
- EC50 (read off the curve) [6]: ~7 nM
